Results on three substances are retold here after paper PMC7105897.

Usually stoichiometry N stands for a count of units in the complex or per binding partner.

Test [1] concerns the target N2 NA of the 1957 H2N2 pandemic isolate A/Japan/305/1957 (influenza A virus A/Japan/305/1957 (H2N2)). Kind of test: crystal structure.
Test [2] deals with N9 NA from the H7N9 epidemic isolate A/Hunan/02650/2016 (influenza A virus A/Hunan/02650/2016 (H7N9)). In words: crystal structure.
In test [3] the target is N2 NA of the seasonal influenza virus strain A/Hong Kong/4801/2014 (H3N2) (influenza A virus A/Hong Kong/4801/2014 (H3N2)).

On to “N2 NA of the 1957 H2N2 pandemic isolate A/Japan/305/1957 (enzyme)”, for which the stoichiometry N in test [1] came to 4. In turn, “N9 NA from the H7N9 epidemic isolate A/Hunan/02650/2016 (enzyme)” gave a stoichiometry N in test [2] of 4.

As to antigen-binding fragment (Fab) of 1G01, the IC50 of inhibition of NA activity of H3N2 A/Hong Kong/4801/2014 in ELLA (Fab) in test [3] was found to be 7.62 nM.
